# Assay: soluble on expression in E. coli; label from the status in PepcDB or PDB records
row,Sequence,soluble on expression in E. coli
1,MGSDKIHHHHHHALSSDYFTTTPQVLEAVGGKVPVTINGKFPEKYFKKNAVVEVTPVLKWEGGQVKGQPAVFQGEKVEGNDQTISYKMGGNYTMKTTFDYVPEMAKSELYLEFNAKVGKKTIAIPAVKIADGVISTSELINNTLSSANPALGDDAFQRIIKEAHNANIMFLIQQANIRSSELKTAKEFNKEVANVNDAENKKISNIEISAYASPDGGVKLNTGLAENREGNTTKLINKDLKKAKIEVPVDAKYTAQDWEGFQELVSKSNIQDKELILRVLSMYQDPEQRETEIKNISSVYKTLADEILPQLRRSRLTLNYEIIGKSDEEIANLAATDPKQLNVEEILYAATLTNDPAKKADIYTKASQQFPNDYRAFNNLGKLAYQAGDLDKAQSYVKKAESIKSAPEVNMNLGLIALAKGDKAAAESYLGKAAGAKELNETLGNLYVAQGQYERAVNAFGDTKTNSAALAQILAKDYNKAKNTLAGIATPDAYTDYLMAVLGARTNNTSMLTSSLKSAVAKNPALAKKAATDLEFAKYYTNADFMSIVK,not soluble
2,MWRIELKHAVNWELKMKFFVLPELPTPDVVESGVWRRAIVLDGRAVAVMAYPESERTIVVEGNFENREWEAVRRKLVEYLGLQNPEELYRFMDGDEKLRMLKNRFYGFGRAGLMSMSVFEGIAKAIIQQQISFVVAEKLAAKIVGRFGDEVEWNGLKFYGFPTQEAILKAGVEGLRECGLSRRKAELIVEIAKEENLEELKEWGEEEAYEYLTSFKGIGRWTAELVLSIALGKNVFPADDLGVRRAVSRLYFNGEIQSAEKVREIARERFGRFARDILFYLFLYDRFFSKKTELV,soluble
3,MNIAVSKPPLTIRLCGPRGFCAGVDRAIQIVVLALKAYGAPVYVRHEIVHNRYVVEGLEAKGAIFVEELHEIPAEHREQPVVFSAHGVPKSVPEDAQARNLFYLDATCPLVSKVHKQAMRHQRLGRHVVLIGHAGHPEVIGTMGQLPEGTVSLVETVEDAGVYEPVDRENLGFVTQTTLSVDDTAGVIARLQERFPAIQAPAADSICYATTNRQDAVKQAAPGCDLFIVVGAPNSSNSKRLVEVALRAGAKHSVLVQRASEIDWNEIGDIRTVGLSAGASAPEVIVDEIIEAFKARFDTTLDLAVTVEETEHFLVNRELRSIELTTDDMAFVNGNASNALPPKATAGILEHHHHHH,not soluble
4,GPGSMNCVQQGKVNVIADNLIPDGKMTEMIIVMKSSVSARANGECLPCDAAQLCEDLTEDIIPYVDNHYRTDADRDNRAIAGLYMGSIQASRLCITRHDLFAYPGMFSGFLSSNWNGIGTDSDHIEALRCDPAAFQAAMKVLFRCIGDDNTYRAAFEADNALLAELGAACERRIYAGSHSWQVWRQAAADFPPMLFKDLSFFPRH,not soluble
5,MEKLIAIQQNTIKQETVQTMSSREIAELCGKRHGHVMRDIRKLFSELKIDLSNFAGLYKDSTGRTLPCYHLPKREALIVILGYNTVLRAKIIDYWKKLEEQAANPQIDFSSPEIRAAIMMHLKNKIKQTA,soluble
6,MGSDKIHHHHHHVSKPPTIVSVPMPCGSTIEIVAPGSFHIPRVLADGGLKNYEVHSTAAALALMERSEGAFYDIGANIGVFSLCVASALRRRCHAYEPFPDAATVLDELQVRYQLPIAVHRKGVGQTAGQAQFYLSDRSDMSNSLNPNFRKHRGVLDVEVTTLEIELKRDKPAVLKIDTETTEDQVITGGLNQIAHHRPSIIVELLNEAIAGKVRKLLLPLGYRCYAIGGGLRLQELSPIETSLEGDGRNWLFSPNPLDQEFADTFNKWRGVLFSI,not soluble
7,MKVDKRIEAVTKFLESLGTVEDYTEDVAVKYRNLILKSYELYENKYNDTVDDSLCIEVWSNGTYVVTNEDLSFDCESEEDLQKLKELFVNTSFYITINELNKVGHKATLSVKAKAKNLRKLGQLIKEYRSCNCKYLKDKVTEIIGDDGRVYLDRISERMD,not soluble
8,MSLNINDALTSILASKKYRALCPDTVRRILTEEWGRHKSPKQTVEAARTRLHGICGAYVTPESLKAAAAALSAGDVKKALSLHASTKERLAELDTLYDFIFSAETPRRVLDIACGLNPLALYERGIASVWGCDIHQGLGDVITPFAREKDWDFTFALQDVLCAPPAEAGDLALIFKLLPLLEREQAGSAMALLQSLNTPRMAVSFPTRSLGGRGKGMEANYAAWFEGGLPAEFEIEDKKTIGTELIYLIKKNGEGHHHHHH,soluble
9,HHHHHHLQGAAPTATVTPSSGLSDGTVVKVAGAGLQAGTAYDVGQCAWVDTGVLACNPADFSSVTADANGSASTSLTVRRSFEGFLFDGTRWGTVDCTTAACQVGLSDAAGNGPEGVAISFN,soluble
10,MGSDKIHHHHHHMKYYYKDGEGFNSKGVFIRVGSTKRVASFDEIQRMIRSHSSNDFELISIDRDDLTFEYIESRFKEKGIKFDVYALSLIGKDNKYNNAALLLSDQNPTISKFAVFQGTDVSVFLDKKEFTGSILKQLDEILYFASLSNRKRITISGKPGREEYLDIPKRALREAIVNCYCHRDYTLSGDVKIEFYDDRVQIFSPGSLPDGLTLENIKMGMVAKRNKIIVNTLDKIDVIENYASGVRRIFEDYADFTKQPEYYISNNGVIVTLFNRNYEAQNEAQNEAQILKLDNQKRIEKILELIKENKNITRSNLKDILGVSKSTIERDISKLKEEDKLEYIGSSRNGYWKVKNN,not soluble
11,MRRCIELAKNGLCNVAPNPMVGAVIVCDGLIIGEGYHIRCGEAHAEVNAIRSVKDKSLLSRSTIYVSLEPCSHYGKTPPCADLIIEKQIPRIVIGCQDPFSQVAGRGIQKLRDAGREVTVGVLEKECRYLIRRFITFNTLHRPFITLKWAESADHFIDVERTDGNPVVLSSPLTSMLVHKKRAETDAIMVGRRTALLDNPSLTVRNWYGRNPVRIVLDRALSLPHSLRLFDGEVPTIVFTAEKHPDKKNVTYRTIEFTQDILPQIMKVLYQQKIQSLLVEGGSQLLQSFIDAELWDEVYIEKCPCKLNSGVKAPEISDNFSYSTEKHFDRQIWHYVFEK,not soluble
12,MLLSNEEFLKKLTDLLQTHQSKGTGSVYLSQKCNPVDEGEGSSASVLIRAKSGAAEKISTVVELDYFTDFFQSYAEVCKGQIVGLKKRDRK,soluble
13,MEGQSGRCKIVVVGDAECGKTALLQVFAKDAYPGSYVPTVFENYTASFEIDKRRIELNMWDTSGSSYYDNVRPLAYPDSDAVLICFDISRPETLDSVLKKWQGETQEFCPNAKVVLVGCKLDMRTDLATLRELSKQRLIPVTHEQGTVLAKQVGAVSYVECSSRSSERSVRDVFHVATVASLGRGHRQLRRTDSRRGMQRSAQLSGRPDRGNEGEIHKDRAKSCNLM,soluble
14,MSRGPEEVNRLTESTYRNVMEQFNPGLRNLINLGKNYEKAVNAMILAGKAYYDGVAKIGEIATGSPVSTELGHVLIEISSTHKKLNESLDENFKKFHKEIIHELEKKIELDVKYMNATLKRYQTEHKNKLESLEKSQAELKKIRRKSQGSRNALKYEHKEIEYVETVTSRQSEIQKFIADGCKEALLEEKRRFCFLVDKHCGFANHIHYYHLQSAELLNSKLPRWQETCVDAIKVPEKIMNMIEEIKTPASTPVSGTPQASPMIERSNVVRKDYDTLSKCSPKMPPAPSGRAYTSPLIDMFNNPATAAPNSQRVNNSTGTSEDPSLQRSVSVATGLNMMKKQKVKTIFPHTAGSNKTLLSFAQGDVITLLIPEEKDGWLYGEHDVSKARGWFPSSYTKLLEENETEAVTVPTPSPTPVRSISTVNLSENSSVVIPPPDYLECLSMGAAADRRADSARTTSTFKAPASKPETAAPNDANGTAKPPFLSGENPFATVKLRPTVTNDRSAPIIR,soluble
15,GPGSMRALTFRSSLCAGRTAVGAMCFGRLWASSTSATEGSEKQNVTEDSETVSVAPVSPEAYAKLEKELSDAKERIAELKKEVLYRAADAENARRIGSEDVTKAKAYGITSFGKDMLDVVDTLERGLEAITKLPQAEVEGHKTLSSIHTGIKLSLKLLLNNLAKHGIEKLDVAVGAKFDPNFHDALLKVPPTAEAPPGHISTVLKTGYKIQDRVLRASQVGVASDD,not soluble

# From the DeepSol protein solubility set
